Experimental data reported in patent US20140086935A1 (Bayer, published 2014).
Residue numbers refer to the chain shown, from its start. One block for each binder: values may come before it.

Experiments:
rat TIMP-1 [1] = molecular target: T1, rat TIMP-1 (rat, UniProt P30120 24-217); assay: SPR (BIAcore), TIMP-1 coupled to chip, monovalent Fab
Experimental: For affinity determination, monomeric fractions of affinity and SEC purified Fab fragments or purified IgG1 molecules were used. All experiments were conducted in HBS buffer at a flow rate of 20 μl/min at 25° C. on a BIAcore™ instrument. Antigens in 100 mM sodium acetate pH 5.0 were coupled to a CM 5 sensor chip using standard EDC-NHS coupling chemistry. […] All sensograms were fitted globally using BIA evaluation software. For monovalent Fab fragments a monovalent fit (Langmuir binding) and for IgGs a bivalent fit was applied.

rat TIMP-1 [2] = molecular target: T1, rat TIMP-1; assay: cell-based or functional assay

T1 sequence (P30120 24-217 limits assumed): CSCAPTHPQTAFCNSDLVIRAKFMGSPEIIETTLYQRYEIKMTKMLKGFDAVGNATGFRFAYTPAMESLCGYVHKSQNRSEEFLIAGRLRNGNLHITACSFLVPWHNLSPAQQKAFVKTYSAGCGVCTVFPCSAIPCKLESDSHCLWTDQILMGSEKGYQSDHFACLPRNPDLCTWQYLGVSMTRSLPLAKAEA

B1: MS-BW-10 (Fab, V domains shown)
VH: QVQLVQSGAEVKKPGASVKVSCKASGYTFTSYYMHWVRQAPGQGLEWMGWINPNSGGTNYAQKFQGRVTMTRDTSISTAYMELSSLRSEDTAVYYCARLVGIVGYKPDELLYFDVWGQGTLVTVSS
VL: DIELTQPPSVSVAPGQTARISCSGDALGDKYASWYQQKPGQAPVLVIYDDSDRPSGIPERFSGSNSGNTATLTISGTQAEDEADYYCQSYDYSLLVFGGGTKLTVLG
notes: Fab, FLAG + Strep-tag II; not tied by name
- Kd (rat TIMP-1 [1]): ~200 nM
- IC50 in rat protease assay (rat TIMP-1 [2]): ~30 nM

B2: MS-BW-11 (Fab, V domains shown)
VH: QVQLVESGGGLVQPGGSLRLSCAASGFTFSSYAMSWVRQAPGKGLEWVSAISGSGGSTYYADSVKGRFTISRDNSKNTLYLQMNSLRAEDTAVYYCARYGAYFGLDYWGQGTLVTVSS
VL: B1 VL with Y92F, S93N, L94F, L95H
notes: as for B1
- Kd (rat TIMP-1 [1]): ~200 nM
- IC50 in rat protease assay (rat TIMP-1 [2]): > 300 nM

B4: MS-BW-12 (Fab, V domains shown)
VH: QVQLQQSGPGLVKPSQTLSLTCAISGDSVSSNSAAWNWIRQSPGRGLEWLGRTYYRSKWYNDYAVSVKSRITINPDTSKNQFSLQLNSVTPEDTAVYYCARGYADISFDYWGQGTLVTVSS
VL: DIALTQPASVSGSPGQSITISCTGTSSDVGGYNYVSWYQQHPGKAPKLMIYDVSNRPSGVSNRFSGSKSGNTASLTISGLQAEDEADYYCQSYDMIARYPVFGGGTKLTVLG
notes: as for B1
- Kd (rat TIMP-1 [1]): ~419 nM
- IC50 in rat protease assay (rat TIMP-1 [2]): > 300 nM

B7: MS-BW-23 (Fab, V domains shown)
VH: QVQLVQSGAEVKKPGASVKVSCKASGYTFTSYYMHWVRQAPGQGLEWMGWINPNSGGTNYAQKFQGRVTMTRDTSISTAYMELSSLRSEDTAVYYCARIMWSDYGQLVKGGDIWGQGTLVTVSS
VL: B4 VL with M95V, I96F, A97P, R98I, Y99N, P100R
notes: as for B1
- Kd (rat TIMP-1 [1]): ~207 nM
- IC50 in rat protease assay (rat TIMP-1 [2]): > 300 nM

B10: MS-BW-9 (Fab, V domains shown)
VH: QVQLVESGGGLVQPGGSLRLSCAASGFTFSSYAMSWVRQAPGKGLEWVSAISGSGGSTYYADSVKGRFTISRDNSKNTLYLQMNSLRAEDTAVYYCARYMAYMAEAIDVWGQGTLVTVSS
VL: DIVLTQPPSVSGAPGQRVTISCSGSSSNIGSNYVSWYQQLPGTAPKLLIYDNNQRPSGVPDRFSGSKSGTSASLAITGLQSEDEADYYCQSYDGFKTHVFGGGTKLTVLG
notes: as for B1
- Kd (rat TIMP-1 [1]): ~256 nM
- IC50 in rat protease assay (rat TIMP-1 [2]): > 300 nM

B11: MS-BW-5 (Fab, V domains shown)
VH: QVQLVQSGAEVKKPGSSVKVSCKASGGTFSSYAISWVRQAPGQGLEWMGGIIPIFGTANYAQKFQGRVTITADESTSTAYMELSSLRSEDTAVYYCARGLYWAVYPYFDFWGQGTLVTVSS
VL: B10 VL with Y92R, G94F, F95N, K96R, T97G, H98P
notes: as for B1
- Kd (rat TIMP-1 [1]): ~210 nM

B12: MS-BW-62 (Fab, V domains shown)
VH: QVQLVQSGAEVKKPGESLKISCKGSGYSFTSYWIGWVRQMPGKGLEWMGIIYPGDSDTRYSPSFQGQVTISADKSISTAYLQWSSLKASDTAMYYCARLFTYPFLYFDVWGQGTLVTVSS
VL: DIALTQPASVSGSPGQSITISCTGTSSDVGGYNYVSWYQQHPGKAPKLMIYDVSNRPSGVSNRFSGSKSGNTASLTISGLQAEDEADYYCQSDFPVMVFGGGTKLTVLG
notes: as for B1
- Kd (rat TIMP-1 [1]): ~36 nM
- IC50 in rat protease assay (rat TIMP-1 [2]): 19 nM

B19: MS-BW-19 (Fab, V domains shown)
VH: QVQLVQSGAEVKKPGESLKISCKGSGYSFTSYWIGWVRQMPGKGLEWMGIIYPGDSDTRYSPSFQGQVTISADKSISTAYLQWSSLKASDTAMYYCARYVTYGYDDYHFDYWGQGTLVTVSS
VL: DIALTQPASVSGSPGQSITISCTGTSSDVGGYNYVSWYQQHPGKAPKLMIYDVSNRPSGVSNRFSGSKSGNTASLTISGLQAEDEADYYCQSWDINHAIVFGGGTKLTVLG
notes: as for B1
- Kd (rat TIMP-1 [1]): ~187 nM
- IC50 in rat protease assay (rat TIMP-1 [2]): > 300 nM

B20: MS-BW-13 (Fab, V domains shown)
VH: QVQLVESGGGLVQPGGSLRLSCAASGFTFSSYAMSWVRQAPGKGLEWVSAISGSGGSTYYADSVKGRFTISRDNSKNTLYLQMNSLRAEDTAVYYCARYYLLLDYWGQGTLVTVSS
VL: DIELTQPPSVSVAPGQTARISCSGDALGDKYASWYQQKPGQAPVLVIYDDSDRPSGIPERFSGSNSGNTATLTISGTQAEDEADYYCQSWDIHPFDVVFGGGTKLTVLG
notes: as for B1
- Kd (rat TIMP-1 [1]): ~939 nM

B22: MS-BW-31 (Fab, V domains shown)
VH: B12 VH with F100Y, T101A, Y102D, P103A, F104D, L105I, V109Y
VL: DIALTQPASVSGSPGQSITISCTGTSSDVGGYNYVSWYQQHPGKAPKLMIYDVSNRPSGVSNRFSGSKSGNTASLTISGLQAEDEADYYCQSYDLSPRVFGGGTKLTVLG
notes: as for B1
- Kd (rat TIMP-1 [1]): ~13 nM
- IC50 in rat protease assay (rat TIMP-1 [2]): > 100 nM

B24: MS-BW-29 (Fab, V domains shown)
VH: B12 VH with L99H, F100D, T101F, Y102D, P103G, F104S, L105I, Y106F, F107M, V109F
VL: B22 VL with L95V, S96T
notes: as for B1
- Kd (rat TIMP-1 [1]): ~214 nM
- IC50 in rat protease assay (rat TIMP-1 [2]): > 100 nM

Now from value to binder:

- Kd (rat TIMP-1 [1]): ~168 nM
- IC50 in rat protease assay (rat TIMP-1 [2]): > 300 nM
B3: MS-BW-7 (Fab, V domains shown)
VH: QVQLVQSGAEVKKPGSSVKVSCKASGGTFSSYAISWVRQAPGQGLEWMGGIIPIFGTANYAQKFQGRVTITADESTSTAYMELSSLRSEDTAVYYCARTYYYFDSWGQGTLVTVSS
VL: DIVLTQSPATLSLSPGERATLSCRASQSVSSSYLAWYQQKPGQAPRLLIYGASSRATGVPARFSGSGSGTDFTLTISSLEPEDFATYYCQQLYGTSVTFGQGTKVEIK

- Kd (rat TIMP-1 [1]): 35 nM
- IC50 in rat protease assay (rat TIMP-1 [2]): 65 nM
B5: MS-BW-22 (Fab, V domains shown)
VH: QVQLVQSGAEVKKPGESLKISCKGSGYSFTSYWIGWVRQMPGKGLEWMGIIYPGDSDTRYSPSFQGQVTISADKSISTAYLQWSSLKASDTAMYYCARFRAYGDDFYFDVWGQGTLVTVSS
VL: B4 VL with Y93W, M95N, I96L, A97K, R98M, Y99P, P100V
notes: as for B1

- Kd (rat TIMP-1 [1]): ~23 nM
- IC50 in rat protease assay (rat TIMP-1 [2]): ~100 nM
B6: MS-BW-55 (Fab, V domains shown)
VH: QVQLVQSGAEVKKPGSSVKVSCKASGGTFSSYAISWVRQAPGQGLEWMGWINPNSGGTNYAQKFQGRVTMTRDTSISTAYMELSSLRSEDTAVYYCARITYIGYDFWGQGTLVTVSS
VL: B4 VL with Y93R, M95L, I96Y, A97Y, R98V, P100Y
notes: as for B1

- Kd (rat TIMP-1 [1]): ~92 nM
- IC50 in rat protease assay (rat TIMP-1 [2]): > 100 nM
B8: MS-BW-32 (Fab, V domains shown)
VH: QVQLVQSGAEVKKPGSSVKVSCKASGGTFSSYAISWVRQAPGQGLEWMGGIIPIFGTANYAQKFQGRVTITADESTSTAYMELSSLRSEDTAVYYCARTKYVGSEDVWGQGTLVTVSS
VL: B4 VL with M95F, I96S, A97H, R98Y, Y99F, P100F
notes: as for B1

- Kd (rat TIMP-1 [1]): ~68 nM
- IC50 in rat protease assay (rat TIMP-1 [2]): ~100 nM
B9: MS-BW-6 (Fab, V domains shown)
VH: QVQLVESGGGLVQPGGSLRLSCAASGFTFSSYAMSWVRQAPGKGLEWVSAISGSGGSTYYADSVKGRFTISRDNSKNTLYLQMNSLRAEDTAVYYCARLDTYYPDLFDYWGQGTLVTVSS
VL: DIVLTQPPSVSGAPGQRVTISCSGSSSNIGSNYVSWYQQLPGTAPKLLIYDNNQRPSGVPDRFSGSKSGTSASLAITGLQSEDEADYYCQSYDQRKWVFGGGTKLTVLG
notes: as for B1

- Kd (rat TIMP-1 [1]): ~14 nM
- IC50 in rat protease assay (rat TIMP-1 [2]): 20 nM
B13: MS-BW-63 (Fab, V domains shown)
VH: B12 VH with L99I, F100L, Y102G, P103H, F104V, Y106L, V109Y
VL: B12 VL with F94N, V96Y, M97L
notes: as for B1

- Kd (rat TIMP-1 [1]): 23 nM
- IC50 in rat protease assay (rat TIMP-1 [2]): 20 nM
B14: MS-BW-24 (Fab, V domains shown)
VH: B12 VH with L99Y, F100Y, T101V, Y102T, P103D, F104T, L105A, V109Y
VL: B12 VL with F94L, P95Y, V96F, M97P
notes: as for B1

- Kd (rat TIMP-1 [1]): ~42 nM
- IC50 in rat protease assay (rat TIMP-1 [2]): ~75 nM
B15: MS-BW-36 (Fab, V domains shown)
VH: QVQLVQSGAEVKKPGESLKISCKGSGYSFTSYWIGWVRQMPGKGLEWMGIIYPGDSDTRYSPSFQGQVTISADKSISTAYLQWSSLKASDTAMYYCARYRYPHMFDFWGQGTLVTVSS
VL: DIELTQPPSVSVAPGQTARISCSGDALGDKYASWYQQKPGQAPVLVIYDDSDRPSGIPERFSGSNSGNTATLTISGTQAEDEADYYCQSYDLRYSHVFGGGTKLTVLG
notes: as for B1

- Kd (rat TIMP-1 [1]): ~138 nM
B16: MS-BW-58 (Fab, V domains shown)
VH: QVQLQQSGPGLVKPSQTLSLTCAISGDSVSSNSAAWNWIRQSPGRGLEWLGRTYYRSKWYNDYAVSVKSRITINPDTSKNQFSLQLNSVTPEDTAVYYCARWMTPPGHYYGYTFDVWGQGTLVTVSS
VL: B15 VL with Y90W, L92P, R93S, Y94H, S95Y, H96Y
notes: as for B1

- Kd (rat TIMP-1 [1]): ~80 nM
- IC50 in rat protease assay (rat TIMP-1 [2]): ~200 nM
B17: MS-BW-15 (Fab, V domains shown)
VH: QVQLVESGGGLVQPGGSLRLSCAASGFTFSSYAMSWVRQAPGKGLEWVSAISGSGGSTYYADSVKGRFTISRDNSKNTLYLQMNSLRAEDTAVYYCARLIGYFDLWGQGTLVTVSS
VL: B19 VL with W93Y, I95V, N96L, H97D, A98S, I99E
notes: as for B1

- Kd (rat TIMP-1 [1]): ~70 nM
- IC50 in rat protease assay (rat TIMP-1 [2]): > 300 nM
B18: MS-BW-20 (Fab, V domains shown)
VH: QVQLVQSGAEVKKPGSSVKVSCKASGGTFSSYAISWVRQAPGQGLEWMGGIIPIFGTANYAQKFQGRVTITADESTSTAYMELSSLRSEDTAVYYCARSGYLDYWGQGTLVTVSS
VL: B19 VL with W93Y, I95Y, N96Y, H97D, A98Y, I99G
notes: as for B1

- Kd (rat TIMP-1 [1]): ~153 nM
- IC50 in rat protease assay (rat TIMP-1 [2]): > 300 nM
B21: MS-BW-18 (Fab, V domains shown)
VH: B5 VH with F99L, R100V, A101G, Y102G, D104Y, F106L, Y107M, V110S
VL: B22 VL with L95D, S96M, P97Q, R98F
notes: as for B1

- Kd (rat TIMP-1 [1]): ~36 nM
- IC50 in rat protease assay (rat TIMP-1 [2]): > 100 nM
B23: MS-BW-30 (Fab, V domains shown)
VH: B5 VH with F99Y, R100A, A101G, Y102H, G103Q, D104Y, D105E, Y107F, V110F
VL: B15 VL with Y90R, L92P, R93V, Y94G, S95F, H96P
notes: as for B1

- Kd (rat TIMP-1 [1]): 10 nM
- IC50 in rat protease assay (rat TIMP-1 [2]): > 100 nM
B25: MS-BW-37 (Fab, V domains shown)
VH: B12 VH with T101A, Y102G, P103L, F104E, V109Y
VL: B22 VL with S96R, P97N
notes: as for B1
